US20140206607A1 (INDIANA UNIVERSITY RESEARCH AND TECHNOLOGY, published 2014)
Numbered stars: 1 amine (or outer) side, 2 acyl side, 3 side chain; on linkers, the order of the positions; unused ones are H or OH. Square brackets hold non-standard residues; d marks the D form. Side chains are listed from the residue outwards. Ends that are not written are not given here. * marks the point of attachment. γGlu = O=C(O)[C@H](CCC(=O)[*:2])N[*:1]; Palmitoyl = CCCCCCCCCCCCCCCC(=O)*; Aib = CC(C)(N)C(=O)O

T1: GIP receptor (UniProt P48546 22-466)
T1 sequence (looked up): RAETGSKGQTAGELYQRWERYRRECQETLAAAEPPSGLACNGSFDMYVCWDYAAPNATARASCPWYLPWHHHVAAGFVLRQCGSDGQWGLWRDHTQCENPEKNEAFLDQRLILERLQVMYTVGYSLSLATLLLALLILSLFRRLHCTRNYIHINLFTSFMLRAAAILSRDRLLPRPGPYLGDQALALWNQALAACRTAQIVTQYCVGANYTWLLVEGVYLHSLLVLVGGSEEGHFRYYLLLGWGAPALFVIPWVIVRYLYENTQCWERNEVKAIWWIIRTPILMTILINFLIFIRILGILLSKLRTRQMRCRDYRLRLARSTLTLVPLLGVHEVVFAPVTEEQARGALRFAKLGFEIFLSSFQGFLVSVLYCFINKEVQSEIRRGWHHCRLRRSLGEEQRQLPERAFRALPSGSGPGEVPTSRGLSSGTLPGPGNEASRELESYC

B1: peptide of SEQ ID NO: 30 (peptide)
peptide: H[Aib]QGTFTSDK([γGlu-Palmitoyl])SKYLD[Aib]RAAQDFVQWLLDGRG-NH2
modifications: N-terminus assumed
SMILES: CCCCCCCCCCCCCCCC(=O)N[C@@H](CCC(=O)NCCCC[C@H](NC(=O)[C@H](CC(=O)O)NC(=O)[C@H](CO)NC(=O)[C@@H](NC(=O)[C@H](Cc1ccccc1)NC(=O)[C@@H](NC(=O)CNC(=O)[C@H](CCC(N)=O)NC(=O)C(C)(C)NC(=O)[C@@H](N)Cc1c[nH]cn1)[C@@H](C)O)[C@@H](C)O)C(=O)N[C@@H](CO)C(=O)N[C@@H](CCCCN)C(=O)N[C@@H](Cc1ccc(O)cc1)C(=O)N[C@@H](CC(C)C)C(=O)N[C@@H](CC(=O)O)C(=O)NC(C)(C)C(=O)N[C@@H](CCCNC(=N)N)C(=O)N[C@@H](C)C(=O)N[C@@H](C)C(=O)N[C@@H](CCC(N)=O)C(=O)N[C@@H](CC(=O)O)C(=O)N[C@@H](Cc1ccccc1)C(=O)N[C@H](C(=O)N[C@@H](CCC(N)=O)C(=O)N[C@@H](Cc1c[nH]c2ccccc12)C(=O)N[C@@H](CC(C)C)C(=O)N[C@@H](CC(C)C)C(=O)N[C@@H](CC(=O)O)C(=O)NCC(=O)N[C@@H](CCCNC(=N)N)C(=O)NCC(N)=O)C(C)C)C(=O)O
B2: peptide of SEQ ID NO: 29 (peptide)
peptide: H[Aib]QGTFTSDK([γGlu-γGlu-Palmitoyl])SKYLD[Aib]RAAQDFVQWLL[Aib]GRG-NH2
modifications: N-terminus assumed
SMILES: CCCCCCCCCCCCCCCC(=O)N[C@@H](CCC(=O)N[C@@H](CCC(=O)NCCCC[C@H](NC(=O)[C@H](CC(=O)O)NC(=O)[C@H](CO)NC(=O)[C@@H](NC(=O)[C@H](Cc1ccccc1)NC(=O)[C@@H](NC(=O)CNC(=O)[C@H](CCC(N)=O)NC(=O)C(C)(C)NC(=O)[C@@H](N)Cc1c[nH]cn1)[C@@H](C)O)[C@@H](C)O)C(=O)N[C@@H](CO)C(=O)N[C@@H](CCCCN)C(=O)N[C@@H](Cc1ccc(O)cc1)C(=O)N[C@@H](CC(C)C)C(=O)N[C@@H](CC(=O)O)C(=O)NC(C)(C)C(=O)N[C@@H](CCCNC(=N)N)C(=O)N[C@@H](C)C(=O)N[C@@H](C)C(=O)N[C@@H](CCC(N)=O)C(=O)N[C@@H](CC(=O)O)C(=O)N[C@@H](Cc1ccccc1)C(=O)N[C@H](C(=O)N[C@@H](CCC(N)=O)C(=O)N[C@@H](Cc1c[nH]c2ccccc12)C(=O)N[C@@H](CC(C)C)C(=O)N[C@@H](CC(C)C)C(=O)NC(C)(C)C(=O)NCC(=O)N[C@@H](CCCNC(=N)N)C(=O)NCC(N)=O)C(C)C)C(=O)O)C(=O)O
B3: peptide of SEQ ID NO: 31 (peptide)
peptide: H[Aib]QGTFTSDK([γGlu-γGlu-Palmitoyl])SKYLD[Aib]RAAQDFVQWLMKGRG-OH
modifications: N-terminus assumed
SMILES: CCCCCCCCCCCCCCCC(=O)N[C@@H](CCC(=O)N[C@@H](CCC(=O)NCCCC[C@H](NC(=O)[C@H](CC(=O)O)NC(=O)[C@H](CO)NC(=O)[C@@H](NC(=O)[C@H](Cc1ccccc1)NC(=O)[C@@H](NC(=O)CNC(=O)[C@H](CCC(N)=O)NC(=O)C(C)(C)NC(=O)[C@@H](N)Cc1c[nH]cn1)[C@@H](C)O)[C@@H](C)O)C(=O)N[C@@H](CO)C(=O)N[C@@H](CCCCN)C(=O)N[C@@H](Cc1ccc(O)cc1)C(=O)N[C@@H](CC(C)C)C(=O)N[C@@H](CC(=O)O)C(=O)NC(C)(C)C(=O)N[C@@H](CCCNC(=N)N)C(=O)N[C@@H](C)C(=O)N[C@@H](C)C(=O)N[C@@H](CCC(N)=O)C(=O)N[C@@H](CC(=O)O)C(=O)N[C@@H](Cc1ccccc1)C(=O)N[C@H](C(=O)N[C@@H](CCC(N)=O)C(=O)N[C@@H](Cc1c[nH]c2ccccc12)C(=O)N[C@@H](CC(C)C)C(=O)N[C@@H](CCSC)C(=O)N[C@@H](CCCCN)C(=O)NCC(=O)N[C@@H](CCCNC(=N)N)C(=O)NCC(=O)O)C(C)C)C(=O)O)C(=O)O

Target: GLP-1 receptor (UniProt P43220 24-463, limits assumed)
Experiment: cell-based or functional assay

Binder | EC50 (nM) at GLP-1 receptor [nM]
B1 | 0.0082
B2 | 0.007
B3 | 0.007

Target: T1, GIP receptor
Experiment: cell-based or functional assay

Binder | EC50 (nM) at GIP receptor [nM]
B1 | 9.06
B2 | 1.65
B3 | 2.34

Target: glucagon receptor (UniProt P47871 26-477, limits assumed)
Sequence (P47871 26-477 limits assumed): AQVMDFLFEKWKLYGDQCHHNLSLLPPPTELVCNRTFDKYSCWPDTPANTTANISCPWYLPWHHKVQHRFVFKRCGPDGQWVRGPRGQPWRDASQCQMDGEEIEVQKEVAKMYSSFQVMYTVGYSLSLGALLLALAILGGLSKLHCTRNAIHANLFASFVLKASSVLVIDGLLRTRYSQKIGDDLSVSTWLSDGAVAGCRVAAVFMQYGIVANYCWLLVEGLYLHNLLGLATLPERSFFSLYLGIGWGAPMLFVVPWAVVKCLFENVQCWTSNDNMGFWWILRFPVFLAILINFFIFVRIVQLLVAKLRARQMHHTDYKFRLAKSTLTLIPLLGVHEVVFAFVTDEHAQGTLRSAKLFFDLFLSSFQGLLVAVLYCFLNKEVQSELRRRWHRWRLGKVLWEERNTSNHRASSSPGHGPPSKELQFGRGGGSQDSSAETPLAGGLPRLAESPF
Experiment: cell-based or functional assay

Binder | EC50 (nM) at glucagon receptor [nM]
B1 | 0.933
B2 | 0.014
B3 | 0.016
